Measured values: patent publication US20240325486A1 (TUFTS MEDICAL CENTER, published 2024)
Non-standard residues stand in square brackets, D forms with d. No end group written: not given here. Tic = O=C(O)[C@@H]1Cc2ccccc2CN1

B1: C18:1 lipidated stable chemerin 9 analog (peptide)
peptide: [dY]FLP[dS]QF[dA][Tic]S
modifications: also: C18:1 lipid tail (which C18:1 acid not given here), linker and attachment not given here

How the values were obtained:
[1] = target: CMKLR1 (recombinant, species not given); assay: cell-based or functional assay
[2] = target: CMKLR1 (recombinant, species not given); assay: cell-based or functional assay; remark: listed apart in the source

Row | CMKLR1 canonical Gαi signal transduction, EC50 (BSA) (no wash) [1] [nM] | CMKLR1 canonical Gαi signal transduction, EC50 (BSA) (wash × 3) [1] [nM] | CMKLR1 canonical Gαi signal transduction, EC50 (no wash) [1] [nM] | CMKLR1 canonical Gαi signal transduction, EC50 (wash × 3) [1] [nM] | β-Arrestin recruitment, EC50 [2] [nM] | β-Arrestin recruitment, Max Efficacy (% 10 µM s-Stable chem9) [2] [%] | Binder
1 | 29.5 | 3140 | 12 | 42.2 | 80.8 | 154 | [dY]FLP[dS]QF[dA][Tic]S (also: C16:1 lipid tail, linker and attachment not given here) [C16:1 lipidated stable chemerin 9 analog]
2 | 17.8 |  | 17.8 |  | 23.1 | 98.3 | [dY]FLP[dS]QF[dA][Tic]S (also: C10 lipid tail, linker and attachment not given here) [C10 lipidated stable chemerin 9 analog]
3 | 12.7 | 2860 | 4.7 | 26.4 | 17.4 | 160 | B1
4 | 73.3 |  | 45.7 | 350 | 181 | 110 | [dY]FLP[dS]QF[dA][Tic]S (also: C18:3 (linolenic acid) lipid tail, linker and attachment not given here) [C18:3 lipidated stable chemerin 9 analog]
5 | 6.4 | 520 | 2.7 | 18.6 | 3.23 | 165 | [dY]FLP[dS]QF[dA][Tic]S (also: C16 (palmitic acid) lipid tail, linker and attachment not given here) [C16 lipidated stable chemerin 9 analog]
6 | 26.2 | 1820 | 9.3 | 100 | 51.9 | 124 | [dY]FLP[dS]QF[dA][Tic]S (also: C14:1 lipid tail, linker and attachment not given here) [C14:1 lipidated stable chemerin 9 analog]
7 | 5.1 |  | 35.2 |  | 31.9 | 100 | [dY]FLP[dS]QF[dA][Tic]S [s-Stable Chem (soluble stable chemerin peptide)]
8 | 108 | 13500 | 84.5 | 445 | 131 | 149 | [dY]FLP[dS]QF[dA][Tic]S (also: cholesterol lipid tail, linker and attachment not given here) [Cholesterol lipidated stable chemerin 9 analog]
9 | 11 |  | 79.3 |  | 223 | 89.7 | [dY]FLP[dS]QF[dA][Tic]S (also: C4 lipid tail, linker and attachment not given here) [C4 lipidated stable chemerin 9 analog]
